From patent publication US20260250381A1
Where a chain is given by its changes, count along the chain named. Each block holds one binder with its values, some of them ahead of it.

Assays:
human TREM2 (human) [1] = target: T1, human TREM2 (human) (UniProt Q9NZC2); assay: 2nd screen, 2 nM Ab
T1 sequence (looked up): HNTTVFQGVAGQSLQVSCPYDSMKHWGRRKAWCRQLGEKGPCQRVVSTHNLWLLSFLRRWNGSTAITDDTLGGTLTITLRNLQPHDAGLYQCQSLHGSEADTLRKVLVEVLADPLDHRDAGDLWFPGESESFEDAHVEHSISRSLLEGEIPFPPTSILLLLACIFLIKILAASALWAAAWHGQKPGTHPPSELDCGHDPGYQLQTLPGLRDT

human TREM2 (human) [2] = target: T1, human TREM2 (human); assay: 1st screen, 10 nM Ab
human TREM2 (human) [3] = target: T1, human TREM2 (human); assay: 2nd screen, 10 nM Ab

Binding Signal (fold over 6E7 parental antibody) (human TREM2 (human) [1]): 1.42 fold | Binding Signal (fold over 6E7 parental antibody) (human TREM2 (human) [2]): 2.64 fold | Binding Signal (fold over 6E7 parental antibody) (human TREM2 (human) [3]): 2.9 fold
B1: 6E7 variant V24 (antibody, V domains shown)
VH: EVQLVQSGAEVKKPGESLKISCKGSGYSFTSYWIAWVRQMPGKGLEWMGIIYPGDSDVRYSPSFQGQVTISADKSISTAYLQWSSLKASDTAMYFCARSRTFYYDSSDYFDYWGQGTLVTVSS
VL: DIQMTQSPSSVSASVGDRVTITCRASQGISSWLAWYQQKPGKAPKLLIYAASSLQKGVPSRFSGSGSGTDFTLTISSLQPEDFATYFCQQADSFPHTFGQGTKLEIK

Binding Signal (fold over 6E7 parental antibody) (human TREM2 (human) [1]): 2.63 fold | Binding Signal (fold over 6E7 parental antibody) (human TREM2 (human) [2]): 3.08 fold | Binding Signal (fold over 6E7 parental antibody) (human TREM2 (human) [3]): 3.61 fold
B2: 6E7 variant V28 (antibody, V domains shown)
VH: B1 VH with T30Q, I50T, V58T, S99Q, Y103F
VL: B1 VL with K56S, F94L, H96R

Binding Signal (fold over 6E7 parental antibody) (human TREM2 (human) [1]): 2.83 fold | Binding Signal (fold over 6E7 parental antibody) (human TREM2 (human) [2]): 3.57 fold | Binding Signal (fold over 6E7 parental antibody) (human TREM2 (human) [3]): 3.47 fold
B3: 6E7 variant V26 (antibody, V domains shown)
VH: B1 VH with A35G, I50T, V58T, S99Q, F102M, Y112A
VL: B1 VL with K56R, F94Y, H96R

Binding Signal (fold over 6E7 parental antibody) (human TREM2 (human) [1]): 0.84 fold | Binding Signal (fold over 6E7 parental antibody) (human TREM2 (human) [2]): 1.53 fold | Binding Signal (fold over 6E7 parental antibody) (human TREM2 (human) [3]): 1.67 fold
B4: 6E7 variant V29 (antibody, V domains shown)
VH: B1 VH with T30K, V58T, S99Q
VL: B1 VL with K56N, H96R

Binding Signal (fold over 6E7 parental antibody) (human TREM2 (human) [1]): 5.67 fold | Binding Signal (fold over 6E7 parental antibody) (human TREM2 (human) [2]): 5.5 fold | Binding Signal (fold over 6E7 parental antibody) (human TREM2 (human) [3]): 5.69 fold
B5: 6E7 variant V27 (antibody, V domains shown)
VH: B1 VH with V58T, S61A, A97V
VL: B1 VL with K56R, H96R

Binding Signal (fold over 6E7 parental antibody) (human TREM2 (human) [1]): 3.15 fold | Binding Signal (fold over 6E7 parental antibody) (human TREM2 (human) [2]): 4.23 fold | Binding Signal (fold over 6E7 parental antibody) (human TREM2 (human) [3]): 4.7 fold
B6: 6E7 variant V25 (antibody, V domains shown)
VH: B1 VH with T30G, I50L, V58T
VL: B1 VL with Q55A, K56N, F94M, H96R
